In test [1] the target is T1, GLP-1R (Homo sapiens, UniProt P43220). The test can be described thus: β-arrestin-2 recruitment to GLP-1R measured by BRET. As to conditions: for Emax: HEK-293T, read-out: β-arrestin-2 Max response (% GLP-1). The format is cell-based.
For test [2] the following is noted: overweight and obese individuals, 24-week Phase 2 clinical trial; cited from earlier work.
Test [3] has as its target GLP-1R-Rluc8 (UniProt P43220).
For test [4], the target named is glucagon-like peptide-1 receptor (UniProt P43220).
Test [5] addresses T1, GLP-1R. Conditions: vs GLP-1; stated as an observation, no reference given; cited from earlier work.
In test [6] the target is glucose-dependent insulinotropic polypeptide receptor (UniProt P48546).
The target of test [7] is glucagon receptor (UniProt P47871).

Square brackets hold non-standard residues; d marks the D form. Ends that are not written are not given here. Aib = CC(C)(N)C(=O)O

T1 sequence (P43220 24-463, species assumed): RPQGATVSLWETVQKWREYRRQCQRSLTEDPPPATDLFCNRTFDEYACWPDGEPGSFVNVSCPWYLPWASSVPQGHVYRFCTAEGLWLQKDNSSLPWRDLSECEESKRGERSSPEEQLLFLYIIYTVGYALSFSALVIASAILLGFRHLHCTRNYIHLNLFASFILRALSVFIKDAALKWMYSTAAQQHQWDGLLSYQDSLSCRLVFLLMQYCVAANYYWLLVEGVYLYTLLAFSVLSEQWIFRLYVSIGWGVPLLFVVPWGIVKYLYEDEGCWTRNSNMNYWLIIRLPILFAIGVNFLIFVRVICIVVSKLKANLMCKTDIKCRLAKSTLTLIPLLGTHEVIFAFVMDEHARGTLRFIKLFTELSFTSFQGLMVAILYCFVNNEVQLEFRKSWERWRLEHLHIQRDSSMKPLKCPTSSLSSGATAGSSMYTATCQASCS
Chain of GLP-1R-Rluc8 (P43220 24-463): as the sequence (P43220 24-463, species assumed) above
Chain of glucagon-like peptide-1 receptor (P43220 24-463): as the sequence (P43220 24-463, species assumed) above
Chain of glucose-dependent insulinotropic polypeptide receptor (P48546 22-466): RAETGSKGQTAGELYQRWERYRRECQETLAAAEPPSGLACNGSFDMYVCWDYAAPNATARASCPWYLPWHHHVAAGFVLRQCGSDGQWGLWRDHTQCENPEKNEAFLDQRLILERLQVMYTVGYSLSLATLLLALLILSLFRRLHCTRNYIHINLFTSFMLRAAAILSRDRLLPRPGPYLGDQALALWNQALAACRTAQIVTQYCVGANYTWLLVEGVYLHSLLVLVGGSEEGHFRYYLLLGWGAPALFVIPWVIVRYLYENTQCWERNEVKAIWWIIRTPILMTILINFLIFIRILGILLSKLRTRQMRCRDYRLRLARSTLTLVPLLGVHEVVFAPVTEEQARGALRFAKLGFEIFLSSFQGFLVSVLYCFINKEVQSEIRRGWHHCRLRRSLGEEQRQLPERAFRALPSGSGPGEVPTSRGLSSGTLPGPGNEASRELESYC

`CC[C@H](C)[C@H](NC(=O)[C@H](Cc1ccccc1)NC(=O)[C@H](C)NC(=O)C(C)(C)NC(=O)[C@H](CCC(N)=O)NC(=O)[C@H](C)NC(=O)[C@H](CCCCNC(=O)COCCOCCNC(=O)CC[C@H](NC(=O)CCCCCCCCCCCCCCCCCCC(=O)O)C(=O)O)NC(=O)[C@H](CCCCN)NC(=O)[C@H](CC(=O)O)NC(=O)[C@H](CC(C)C)NC(=O)[C@](C)(CC(C)C)NC(=O)[C@@H](NC(=O)[C@H](CO)NC(=O)[C@H](Cc1ccc(O)cc1)NC(=O)[C@H](CC(=O)O)NC(=O)[C@H](CO)NC(=O)[C@@H](NC(=O)[C@H](Cc1ccccc1)NC(=O)[C@@H](NC(=O)CNC(=O)[C@H](CCC(N)=O)NC(=O)C(C)(C)NC(=O)[C@@H](N)Cc1ccc(O)cc1)[C@@H](C)O)[C@@H](C)O)[C@@H](C)CC)C(=O)N[C@@H](CCC(=O)O)C(=O)N[C@@H](Cc1ccc(O)cc1)C(=O)N[C@@H](CC(C)C)C(=O)N[C@@H](CC(C)C)C(=O)N[C@@H](CCC(=O)O)C(=O)NCC(=O)NCC(=O)N1CCC[C@H]1C(=O)N[C@@H](CO)C(=O)N[C@@H](CO)C(=O)NCC(=O)N[C@@H](C)C(=O)N1CCC[C@H]1C(=O)N1CCC[C@H]1C(=O)N1CCC[C@H]1C(=O)N[C@@H](CO)C(N)=O` [Retatrutide]: the Emax in test [1] stood at 58 ± 5%. Also, the maximal weight loss in test [2] was 24%.

As for GEP44 (peptide), the pEC50 of β-arrestin-2 recruitment to GLP-1R, BRET, HEK293T cells in test [3] amounted to 7.67. This compound also yielded an EC50, cAMP-dependent CRE6x-luciferase reporter gene assay, HEK293 cells in test [4] of 0.64 pM.

Turning to GLP-1(9–36 amide), the “loss in receptor potency of the DPP4-truncated form” value in test [5] is > 1,000 fold.

The term EC50 denotes the concentration that produces a half-maximal response. Low values mean greater potency, high ones weaker potency. Turning to “H[Aib]QGTFTSDYSKYLDERAAQDFVQWLLDGGPSLRHYLNLVTRQRY-NH2 (C-terminus assumed) [TC0]”, in test [1], a half-maximal response (EC50) required 21400 pM and the Emax came to 90 ± 5%.

Compound Retatrutide (peptide) gave a pEC50 of β-arrestin-2 recruitment to GLP-1R, BRET, HEK293T cells in test [3] of 7.62. For the same compound, the EC50, cAMP-dependent CRE6x-luciferase reporter gene assay, HEK293 cells in test [6] turned out to be 2.2 pM; in test [7] it was 8.2 pM; in test [4], 11 pM.

The record behind these values is paper PMC12560177 (Journal of the American Chemical Society, 2025).
